CN115368461A (JIANGSU HENGRUI MEDICINE CO; SHANGHAI HENGRUI …, dated 2022)
Where a chain is given by its changes, count along the chain named.

T1: TROP2 on FaDu cells (high huTROP2 expression) and SK-OV-3 cells (low TROP2 expression) (human, UniProt P09758 27-323)
T1 sequence (looked up): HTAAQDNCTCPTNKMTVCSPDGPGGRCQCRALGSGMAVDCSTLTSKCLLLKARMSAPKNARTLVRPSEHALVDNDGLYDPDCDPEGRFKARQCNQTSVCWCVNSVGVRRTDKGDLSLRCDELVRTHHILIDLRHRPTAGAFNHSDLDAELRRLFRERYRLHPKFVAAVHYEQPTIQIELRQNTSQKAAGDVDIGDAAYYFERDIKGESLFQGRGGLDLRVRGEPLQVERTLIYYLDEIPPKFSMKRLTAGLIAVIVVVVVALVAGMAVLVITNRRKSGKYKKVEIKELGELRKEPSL

T2: 人TROP2-his (huTROP2-His), ACRO TR2-H5223 (human, UniProt P09758 27-274)
T2 construct: Bought His-tagged human TROP2 protein (ACRO)
T2 sequence: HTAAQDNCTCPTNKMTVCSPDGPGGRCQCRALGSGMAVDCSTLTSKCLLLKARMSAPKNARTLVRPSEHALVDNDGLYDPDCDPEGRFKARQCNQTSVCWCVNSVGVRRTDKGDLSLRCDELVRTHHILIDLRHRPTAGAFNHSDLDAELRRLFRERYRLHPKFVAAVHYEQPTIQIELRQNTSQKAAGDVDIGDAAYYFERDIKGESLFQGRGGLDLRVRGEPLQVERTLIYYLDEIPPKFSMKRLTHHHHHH

T3: CHO细胞表面表达的人TROP2 (huTROP-2 CHO-K1 cells) (human, UniProt P09758 27-323)
T3 construct: Untagged human TROP2 stably expressed on CHO-K1 cells; The cells were fixed with paraformaldehyde in the cell ELISA; also called CHO-K1/hTROP2
T3 sequence: T1 sequence (looked up)

B1: hRS7 (antibody, human IgG1, kappa, V domains shown)
VH: QVQLQQSGSELKKPGASVKVSCKASGYTFTNYGMNWVKQAPGQGLKWMGWINTYTGEPTYTDDFKGRFAFSLDTSVSTAYLQISSLKADDTAVYFCARGGFGSSYWYFDVWGQGSLVTVSS
VL: DIQLTQSPSSLSASVGDRVSITCKASQDVSIAVAWYQQKPGKAPKLLIYSASYRYTGVPDRFSGSGSGTDFTLTISSLQPEDFAVYYCQQHYITPLTFGAGTKVEIKR
B2: hu29-12 (antibody, human IgG1, kappa, V domains shown)
VH: EVKLVESGGGLVQPGGSLRLSCAASGFSFSDYYMYWVRQAPGKGLEWVANIDNVGDTTYYPDTVKGRFTISRDNAKNSLYLQMNSLRAEDTAVYYCARHDPLTGPPFFAMDYWGQGTTVTVSS
VL: DIQMTQSPSSLSASVGDRVTITCKASQGINQYIAWYQQKPGKGPKLLIHYTSTLQPGVPSRFSGSGSGRDYTFTISSLQPEDIATYYCLQYDNLWTFGGGTKVEIKR
notes: also called mAb29 VH4 + VL3
B3: hu53-02 (antibody, human IgG1, kappa, V domains shown)
VH: EVQLVQSGAEVKKPGASVKVSCKASGYTFTSYWITWVRQAPGQGLEWMGNIHPGSSTTNYNEKFKSRVTMTRDTSTSTVYMELSSLRSEDTAVYYCAREVGDYWGQGTTVTVSS
VL: EIVLTQSPATLSLSPGERATLSCRASQIIGTSIHWYQQKPGQAPRLLIKYVSESISGIPARFSGSGSGTDFTLTISSLEPEDFAVYYCQQSHSWPFTFGGGTKVEIKR
notes: also called mAb53 VH1 + VL2
B4: mAb29 (antibody, V domains shown)
VH: EVKLVESGGDLVQPGGSLKLSCAASGFSFSDYYMYWVRQTPEKRLEWVANIDNGGDTTYYPDTVKGRFTISRDNAKNTLYLQMSRLKSEDTAMYYCARHDPLTGPPFFAMDYWGQGTSVTVSS
VL: DIQMTQSPSSLSASLGGKVTISCKASQGINQYIAWYQLKPGKGPRLLIHYTSTLQPGVPSRFSGSGSGRDYSFSISNLEPEDIASYYCLQYDNLWTFGGGTKLEIK
notes: Murine hybridoma monoclonal antibody; the murine constant regions are not; In the cell ELISA it was detected with goat anti-mouse IgG-HRP; also called 鼠源mAb29; 鼠源抗体mAb29
B5: TINA (antibody, human IgG1, kappa, V domains shown)
VH: QVQLVQSGAEVKKPGASVKVSCKASGYTFTTAGMQWVRQAPGQGLEWMGWINTHSGVPKYAEDFKGRVTISADTSTSTAYLQLSSLKSEDTAVYYCARSGFGSSYWYFDVWGQGTLVTVSS
VL: B1 VL with L4M, S20T, I31T, D60S, A100Q, V104L
notes: Control antibody built according to WO2015098099A1; also called TINA抗体; 阳性对照抗体TINA
B6: mAb53 (antibody, V domains shown)
VH: QVQLQQPGAELVKPGASVKMSCKASGYTFTSYWITWVKQRPGQGLEWIGNIHPGSSTTNYNEKFKSKATLTVHTSSSTVYMQLTSLTSEDSAVYYCAREVGDYWGQGTSVTVSS
VL: DILLTQSPAILSVSPGERASFSCRASQIIGTSIHWYQQRTNGSPRLLIKYVSESISGIPSRFSGSGSGTDFTLSINSVESEDIADYYCQQSHSWPFTFGGGTKL
notes: Murine hybridoma monoclonal antibody; the murine constant regions are not; also called 鼠源mAb53; 鼠源抗体mAb53

What was measured:
[1] = target: T1, TROP2 on FaDu cells (high huTROP2 …); assay: cell-based or functional assay
[2] = target: T2, 人TROP2-his (huTROP2-His), ACRO TR2-H5223; assay: Biacore T200 SPR; antibody captured on Protein A chip, huTROP2-his as analyte, 1:1 model
[3] = target: T2, 人TROP2-his (huTROP2-His), ACRO TR2-H5223; assay: ForteBio Octet BLI; antibody on Protein A sensor, 100nM antigen
[4] = target: T3, CHO细胞表面表达的人TROP2 (huTROP-2 CHO-K1 cells); assay: cell ELISA on fixed huTROP-2 CHO-K1 cells

| Binder | IC50(nM), DT3C内吞杀伤实验 on FaDu cells [1] | Imax(%), DT3C内吞杀伤实验 on FaDu cells [1] | Kd [2] | binding result [3] | binding result [4] |
| --- | --- | --- | --- | --- | --- |
| B1 | 0.069 nM | 97.7% |  |  |  |
| B2 | 0.0094 nM | 100% | 0.202 nM |  |  |
| B3 | 0.0643 nM | 97.5% | 0.691 nM |  |  |
| B4 |  |  |  | binds | binds |
| B5 |  |  | 17 nM |  |  |
| B6 |  |  |  | binds | binds |
